Data published in patent publication US20250243265A1 (published 2025).
Numbering of substitutions follows the chain as printed. Numbers in names are those of the source.

B1: 1F11 IgG (antibody, V domains shown)
VH: EVQLVESGGGLVQPGGSLRLSCAASGFTFSNTYISWVRQAPGKGLEWVASITPSSGSTDYADSVKGRFTISADTSKNTAYLQMNSLRAEDTAVYYCARTWLLRWVMDYWGQGTLVTVSS
VL: DIQMTQSPSSLSASVGDRVTITCRASQDVSTAVAWYQQKPGKAPKLLIYSAKFLYSGVPSRFSGSGSGTDFTLTISSLQPEDFATYYCQQSYTTPPTFGQGTKVEIK
B2: 1F11/2H5/3F5 triple mutant IgG (antibody, name in Kabat numbering, V domains shown)
VH: B1 VH with S57Q
VL: B1 VL with T94N
notes: S52K put into the 2H5 light chain, paired with the 3F5 heavy chain; human kappa IgG1
B3: 1F11/Y102L T110A IgG (antibody, name in Kabat numbering, V domains shown)
VH: B1 VH with Y108L, T116A
VL: B1 VL
notes: Human kappa IgG1
B4: 3F5/Y102L T110A IgG (antibody, name in Kabat numbering, V domains shown)
VH: B1 VH with S57Q, Y108L, T116A
VL: B1 VL with K52S
notes: Human kappa IgG1
B5: 1F11/Y102L IgG (antibody, V domains shown)
VH: B1 VH with Y108L
VL: B1 VL
notes: Human kappa IgG1
B6: 1F11/2C11/3F5 triple mutant IgG (antibody, name in Kabat numbering, V domains shown)
VH: B1 VH with S57Q
VL: B1 VL with T94Q
notes: S52K put into the 2C11 light chain, paired with the 3F5 heavy chain; human kappa IgG1
B7: 3F5/Y102L IgG (antibody, name in Kabat numbering, V domains shown)
VH: B1 VH with S57Q, Y108L
VL: B1 VL with K52S
notes: Human kappa IgG1

target: T1, K63-linked diubiquitin (Boston Biochem) (Homo sapiens (Human), UniProt P0CG48 1-76, isopeptide bond between the C-terminus of one ubiquitin and Lys63 of the other); assay: western blot
T1 construct: Two ubiquitin units; also called K63 diUb
Procedure: Non-specific binding sites on the membranes were blocked by incubation in 5% milk in PBST for 1 hour at 25° C. with shaking. […] The membranes were washed three times in PBST with shaking. The IgGs were detected by incubating the membrane in a 1:10,000 dilution of a goat anti-human Fc fragment-specific IR Dye 800CW-conjugated secondary antibody (Rockland Immunochemicals) in 5% milk in PBST for 30 minutes at 25° C. with shaking. The membranes were then washed three times in PBST followed by one wash in PBS.

Binder	binding result
B1	no binding

target: linear diubiquitin (Boston Biochem) (Homo sapiens (Human), UniProt P0CG48 1-152); assay: western blot, 1 µg/mL IgG

Binder	binding result
B2	binds
B3	binds
B4	binds
B5	binds
B6	binds
B7	binds
